We go through three molecules from paper doi:10.1101/2020.04.30.069369.

The target of series [1] is Streptococcus thermophilus Rgg3 (S. thermophilus). The series is described as follows: cryo-EM structure.
Series [2] addresses Streptococcus dysgalactiae Rgg2 (S. dysgalactiae). The series is described as follows: crystal structure.
Series [3] addresses T1, Rgg3St (Streptococcus thermophilus, UniProt Q5M4D0 1-284).
T1 sequence: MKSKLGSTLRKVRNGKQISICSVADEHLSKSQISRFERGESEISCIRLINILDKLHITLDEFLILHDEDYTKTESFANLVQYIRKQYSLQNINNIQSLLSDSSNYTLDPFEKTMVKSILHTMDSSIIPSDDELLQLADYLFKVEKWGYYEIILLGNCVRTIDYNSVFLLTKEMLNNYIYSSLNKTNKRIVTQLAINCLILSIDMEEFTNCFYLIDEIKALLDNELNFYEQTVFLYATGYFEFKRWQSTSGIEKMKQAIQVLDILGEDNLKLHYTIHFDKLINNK
The experiment in a line: X-ray crystallography.

“Streptococcus thermophilus Rgg3 (natural protein)”: in series [1], the stoichiometry N (in general, a count of units in the complex or per binding partner) was determined as 2. As for “Streptococcus dysgalactiae Rgg2 (natural protein)”, the stoichiometry N in series [2] was determined as 2.

B1: Rgg3 box (pSHP3DNA) (dsDNA)
DNA 1: CATAATTTTCCCATTTCCCCAACAAAAAAG
DNA 2: TTTTTGTTGGGGAAATGGGAAAATTATGCT
In the case of B1, the binding result in series [3] is recorded as “binds”.
